Measured values: the nanobody polyreactivity screen of Harvey et al. (2022)

Assay: yeast display, Sf9 membrane polyspecificity reagent, FACS + sequencing; frameworks hold sequencing errors
How it was run: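 Genes from sorted yeast were amplified by colony PCR, read by MiSeq 2 × 250 sequencing and filtered on CDR length. These cells carried a synthetic nanobody library in Saccharomyces cerevisiae BJ5465 and were sorted by FACS into low and high (top ~1%) gates on anti-HA and streptavidin fluorescence. Polyreactivity is labelled according to the gate of origin.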

Sequence	polyreactivity (PSR sort gate)
QVQLVESGGGLVQAGGSLRLSCAASGSIFWKNVMGSYRQAPGKERELVAGISQNGGSTTYADSVKGRFTISRDNAKNTVYLQMNSLKPEDTAVYYCAAKRYGPFKYGYWGQGTQVTVSS	high polyreactivity
QVQLVESGGGLVQAGGSLRLSCAASVSTLSDNAMGWYRQAPGKERELVASISWSGGTYYADSVKGRFTISRDNAKNTVYLQMNSLKPEDTAVYYCAAYIYYNYSRQYWYDYWGQGTQVTVSS	low polyreactivity
QVQLVESGGGLVQAGGSLRLSCAASGFTFTDNAMGRYRQAPGKERELVAAISEGSGITYYADSVKGRFTISRDNAKNTVYLQMNSLKPEDTAVYYCAADWLSKYDYWGQGTQVTVSS	low polyreactivity
QVQLVESGGGLVQAGGSLRLSCSASGSIFGVYTMGWFRQAPGKERELVAAITSAGSTYADSVKGRFTISRDNAKNTVYLQMNSLKPEDTAVYYCNAESVLLSVLVELREPHEYWGQGTQVTVSS	low polyreactivity
QVQLVESGGGLVQAGGSLRLSCAASGSTFTSYTMGWYRQAPGKERELVAAISRGGGRTYYADSVKARFTISRDNAKNTVYLQMYRLNPEDTAVYYCNKVLRGDRAGPGYDHWGLGTQVTVSS	high polyreactivity
QVQLVESGGGLVQAGGSLRLSCAASGRTFYYYTMGWYRQPPRKEREFVAAISWSGGSKYYADSVKGRFTISRDNAKNTVYLQMNSLIPEDTAVYYCNARSFATGSKVPARGYWVQGTQVTVSS	high polyreactivity
QVHIVESGGGLVQAGGSLRLSCADSGSIFLSNVMGSYRQAPGKERELVDDITRSGGSTYYADSVKGRFTISRDNAKNTVYLQMNSLKPEDTAVYYCNAYEYLSAGYDYWGQGTQVTVSS	low polyreactivity
QVQLVESGGGLVQAGGILRLSCAPSGSTFRANAMGWYRQAPGKERELVAAITSGGSTNYADSVKGRFTISRDNAKNTVYLQRNSLKPEDTAVYYCADESYQEHSFYVYYGYDYWGQGTQVTVSS	low polyreactivity
QVQLVESGGGLVQAGGSLRLSCAASGNTFLRNTMGWYRQAPGTERELVAAISWGGGTTYYADSVKGRFTISRDNAKNTVYLQMNILKPEDTAVYYCNARYYSRRGNSWGQGTQVTVSS	high polyreactivity
QVQLVESGGGLVQAGGSLRLSCAASGSNFDIYGMGWYRQAPGKERELVASISGGAGSTNYADSVKGRFTISRDNAKNTVYLQMNSLKPEDTAVYYCAAEVYVPDSFQHKFDVEYEYWGQGTQVTVSS	low polyreactivity
QVQLVESGGGLDQAGGSLRLSCAASGFTFPWYPMGWYRQAPGKEREMVAAISTGGSTDYADSVKGRFTISRDNAKNTVYLKMNILKPEDTAVYYCNAGYWVRKYYHGGYWGQGTQVTLSS	high polyreactivity
QVQLVESGGGLVQAGGSLRLSCAASGFIFTFYAMGWYRQAPGKEREFVASIDWGDGSTYYADSVKGRFTISRDNAKNTVYLQMNSLKPEDSAVYYCAHDYDGYVWDTEYDYWGQGTQVTVSS	low polyreactivity
QVQLVESGGGLVQAGGSLRLSCAASGSTFDPNAMGWYRQAPGKETELVAAIDSGGSTYYADSVKGRFTISRDNAKNTVYLQMNSLKPEDTAVYYCATKQPTWVPRVIISYTKFDYWGQGTQVTVSS	low polyreactivity
QVQLVESGGGLVQAGGSLRLSCAASGSTFYGYAMGWYRQAPGKERELVAAITLIGTSTYYADSVKCRFTISRDNAKNTVYLQMNSLKPEDTAVYYCAAEISYGYGYWGQGTQVTVSS	low polyreactivity
QVQLVESGGGLVQAGGSLRLSCAASGIIFDTNAMGWYRQAPGKERELVASISKRGGSTYYADSVKGRFTISRDNAKNTVYLQMNSLKPEDTAVYYCNALRRRQYHDDYWGQGTQVTVSS	high polyreactivity
QVQLVESGGGLVQAGGSLRLSCAASGSTFTQNAMGWYRQAPGKERELVAAIDRRGGSTYYADSVKGRFTISRDNAKNTVYLQMNSLKPEDTAVYYCAASFSYNRPKRFTHNYEYWGQGTQVTVSS	low polyreactivity

Sequence	polyreactivity (PSR sort gate)
QVQLVESGGGLVQAGGSLRLSCAGSGGIIGSNAMGWYRQAPGKERELVAAINTRGGRTYYADSVKWRFTISRDNAKNTVYLQMNILKPEDTAVYYCATVSYSSRRDRYDYWGQGTQVTVSS	high polyreactivity
QVQLVESGGGLVQAGGSLRLSCAASGSTFIYYAMGWYRQAPGKERELVAAISKRGGNTYYADSVKGRFTISRDNAKNTVYLQMNSLKPEDTAVYYCAARVYGTSRRYYSWGQGTQVTVSS	high polyreactivity
QVQLVESGGGLVQAGGSLRLSCAASGPTFGVNAMGWYRQAPGKERELVAVISSTGSTNYADSVKGRFTISRDNAKNTVYLQMNSLKPEDTAVYYCAVGPNSVGNRSYGFDYWGQGTQVTVSS	low polyreactivity
QVQLVESGGGLVQAGGSLRLSCAASGSIFVVNTLGWYRQAPGKEREFVAPISYNGGRTSYADSVKGRFTISRDNAKNTVYLQMNSLKPEDTEVYYCAAGGSVPRAYHISYFTQYDYWGQGTQVTVSS	low polyreactivity
QDQLVESGGGLVQAGGSLRLSCAASGITSNPYDMGWYRQAAGKERELVAVITSGGSTSYADSVKGRFTISRDNAKNTVYLQLISLKREDTAVYYCNSVYAGWRGGNYWGQGTQVTVSS	low polyreactivity
QVQHVESGGGLVQAGGSLRLSCAASGSTFFKYDMGWYRPAPGTERELVAVITWSGGTTFYADSVKGRFTISRDNANNTVYLQMNSLKPEDTAVSYCAADYYGYRYDYWGQGTQVTVSS	low polyreactivity
QVQLVESGGGLVQAGGSLRLSCAASGSTFPYNAMGWYRQAPGKERELVAAITSDDTTNYADSVKGRFTISRDNAKNTVYLQMNSLKPEDTAVYYCAAEYRYPYLRGAGDYWGQGTQVTVSS	low polyreactivity
QVQLVESGGGLVQAGGSLRLSCAASGSIFERYDMGWYRQAPGKERELVAAITSAGITYYADSVKGRFTISRDNAKNTVYLQMNSLKPEDTAVYYCAAQGRRGAPYRHVIEGDYWGQGTQVTVSS	low polyreactivity
QVQLVESVGGLVQAGGRLRLSCDASGFIFANYAMGWYRQATGKERELVAAITSGTGTNYADSVKGRFTISRDNAKNTVYLQMNSLKPEDTAVYYCAAYYTWLSEFGYWGQGTQVTVSS	low polyreactivity
QVQLVESGGGLVQAGGSLRLSCAASGFIFSYYAMGWYRQAPGKERELVAVISWSGGSTYYADSVKGRFTISRDNAKNTVYLQMNSLKPEDTAVYYCNAGYTYNRVIWPYYYWGQGTQVTVSS	high polyreactivity
QVQLVESGGGLVQAGGSLRLSCAASGSTIYWYTMGWYRQPPGKEMELVAAITGGTGNTYYADSVKGRFTISRDNAKNTVYLQMNSLKPEDTAVYYCAAYYRRYDYDYWGQGTQVTVSS	high polyreactivity
QVQLVESGGGLVQAGGSLRLSCAASGRIFGSYAMGWYRQAPGKERELVAAISRSGVSTYYADSVKGRFTISRDNAKNTVYLQMNSLKPEDTAVYYCAAYYRYASDYWGQGTQVTVSS	low polyreactivity
QVQLVESGGGLVQAGGSLRLSCAASGRTFVYYTLGWYRQPPGKERELVARISAGGGITYYADSVKGRFTISRDNAKNTVYLQMNSLNREDTAVYYCAADYWFTYRRPAYEYAYWGQGTQVTVSS	high polyreactivity
QVQLVESGGGLVQAGGSLRISCAASGSTFNINAMGWYRQAPGKERELVAAIRYRGGSTNYADSVKGRFTISRDNAKNNVYLQMNSLKPEDTAVYYCAATYSRHTNGYSKYCYWGQGTQVTVSS	high polyreactivity
QVQLVESGGGLVQAGGSLRLSCAASGIIFYGNTLGWYRQAPGKERELVAGIDFSDDSTNYADSVKGRFTISRDNAKNSVYLLRNSLKPEDTAVYYCAADTRSPSAQEVDYWGQGTQVTVSS	low polyreactivity
